In patent US20150246947A1 (BAXALTA, published 2015):

How the values were obtained:
human Protein S [1] = target: T1, human Protein S (human, UniProt P07225 42-676); experiment: Biacore (SPR), Protein S immobilized, 25 °C
T1 construct: Called 'full length Protein S' / 'human full-length Protein S'; It was coated on plates (ELISA), Eu-labeled (LANCE) or immobilized on a chip (Biacore); also called PS; full length Protein S
T1 sequence: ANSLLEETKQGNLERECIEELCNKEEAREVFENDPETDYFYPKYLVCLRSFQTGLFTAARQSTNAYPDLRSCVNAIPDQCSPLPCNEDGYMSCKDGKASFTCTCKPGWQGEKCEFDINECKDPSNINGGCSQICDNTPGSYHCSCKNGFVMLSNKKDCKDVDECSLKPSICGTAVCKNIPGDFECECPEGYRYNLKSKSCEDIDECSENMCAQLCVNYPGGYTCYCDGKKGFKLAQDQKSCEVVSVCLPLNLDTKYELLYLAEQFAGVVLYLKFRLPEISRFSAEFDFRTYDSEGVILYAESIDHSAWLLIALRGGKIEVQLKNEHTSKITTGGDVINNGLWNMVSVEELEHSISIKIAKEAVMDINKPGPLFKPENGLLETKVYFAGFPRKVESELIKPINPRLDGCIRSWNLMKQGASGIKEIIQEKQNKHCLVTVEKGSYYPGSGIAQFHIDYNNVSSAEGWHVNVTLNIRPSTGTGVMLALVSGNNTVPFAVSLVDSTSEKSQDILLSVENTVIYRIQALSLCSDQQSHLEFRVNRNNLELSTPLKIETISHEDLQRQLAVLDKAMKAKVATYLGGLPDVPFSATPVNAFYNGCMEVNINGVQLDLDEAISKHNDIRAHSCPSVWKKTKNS
Experimental: Protein S affinity also was determined via Biacore (Biacore 3000 or Biacore T200) using human full-length Protein S and human GAS6. Briefly, 1000 RU of Protein S or GAS6 were immobilized on a CMS chip. In order to probe the kinetics of Protein S binding peptides to Protein S, the peptides were injected at various concentrations in a HBS-buffer containing 3 mM CaCl₂ and 1% DMSO to the flow cell and allowed to interact with the immobilized proteins on the sensor chip. The chip could be regenerated with 4 M MgCl₂ in HBS-buffer. Sensorgrams were fitted to a Langmuir binding model for the determination of kₒₙ and koff and the calculation of KD. Peptides were tested on their specificity to Protein S with peptide binding studies on the anti-target GAS6.

human Protein S [2] = target: T1, human Protein S; experiment: cell-based or functional assay
human Protein S [3] = target: T1, human Protein S; experiment: competition ELISA; Protein S coated; competitor biotinylated tracer JBS0684
Experimental: The competition (IC50) ELISA was performed using biotinylated tracer peptide JBS0684 to compete for Protein S-binding with candidate peptides. Peptides that compete with the tracer bind the same region of Protein S as the tracer (and each other). Ninety-six well PolySorp plates (Nunc) were coated with 3 μg/mL Protein S in coating buffer (15 mM Na₂CO₃, 35 mM NaHCO₃, pH 9.6) over night. […] Plates were then washed three times with HNaT. JBS0684 was applied at a concentration corresponding to the EC90 value determined in the binding ELISA. A competitor stock solution of peptide (10 mM) was diluted 1/33.3 in HNaT without HSA, and a serial 1/3 dilution was prepared with HNaT with 3% DMSO. The dilution was further diluted with the biotinylated tracer peptide in a ratio of 1:6 (20 μl competitor dilution and 100 μl tracer peptide). The mixture of competitor and tracer peptide was applied to the Protein S-coated microtiter plate and incubated for 1.5 hours. The plates were washed three times with HNaT. Peptide-Protein S binding was detected by applying HRP-conjugated streptavidin to the microtiter plate, incubating the mixture for one hour, washing the plate three times with HNaT, applying TMB (3,3′5,5′-Tetramethylbenzidin), and detecting the subsequent chromogenic conversion of TMB by HRP. IC50 measurements of peptides are provided herein (see, e.g., Table 3).

Ac-TGLVSAGWYDYNFDHYREFT-NH2 (also called parent peptide JBS2572) [JBS2572] was tested, and the Kd (human Protein S [1]) was 6 nM, the koff (human Protein S [1]) was 0.00148 s⁻¹ and the kon (human Protein S [1]) was 248000 M⁻¹ s⁻¹. The “fold increase of activity in the CAT-assay compared to JBS2512” value (human Protein S [2]) was 1.6 fold and the IC50 (human Protein S [3]) was 2.5 nM.
